Laboratory results published in patent US20030017991.

Target: APP695 with C-terminal dilysine and the mutation KM-DA594-597 to SYEA594-597, expressed in HEK 293 derivative cells, P05067
Sequence (P05067 whole entry, looked up, change not shown, tested part not stated): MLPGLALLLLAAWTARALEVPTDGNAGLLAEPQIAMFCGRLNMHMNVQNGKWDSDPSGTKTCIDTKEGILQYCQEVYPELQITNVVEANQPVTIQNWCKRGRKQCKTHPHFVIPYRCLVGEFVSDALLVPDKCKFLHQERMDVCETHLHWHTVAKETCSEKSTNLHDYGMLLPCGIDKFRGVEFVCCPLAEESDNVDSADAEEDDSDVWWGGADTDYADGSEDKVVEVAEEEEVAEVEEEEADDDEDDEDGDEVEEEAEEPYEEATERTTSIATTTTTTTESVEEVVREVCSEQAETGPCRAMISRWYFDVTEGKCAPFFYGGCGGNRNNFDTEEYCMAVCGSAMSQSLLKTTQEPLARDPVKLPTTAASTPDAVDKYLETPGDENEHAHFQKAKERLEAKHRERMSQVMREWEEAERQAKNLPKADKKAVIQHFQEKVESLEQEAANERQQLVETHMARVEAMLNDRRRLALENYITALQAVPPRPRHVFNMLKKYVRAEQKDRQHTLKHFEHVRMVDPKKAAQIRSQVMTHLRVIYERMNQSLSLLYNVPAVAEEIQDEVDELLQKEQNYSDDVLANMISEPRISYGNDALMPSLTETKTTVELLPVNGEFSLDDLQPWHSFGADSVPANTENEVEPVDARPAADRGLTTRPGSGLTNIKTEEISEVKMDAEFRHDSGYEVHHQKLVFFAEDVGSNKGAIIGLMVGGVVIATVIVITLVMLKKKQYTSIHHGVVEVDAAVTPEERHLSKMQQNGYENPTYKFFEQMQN

B1: Hu-Asp2 expressed in a stable HEK-293 derivative cell line (higher levels of Hu-Asp2) (protein)
chain: ETDEEPEEPGRRGSFVEMVDNLRGKSGQGYYVEMTVGSPPQTLNILVDTGSSNFAVGAAPHPFLHRYYQRQLSSTYRDLRKGVYVPYTQGKWEGELGTDLVSIPHGPNVTVRANIAAITESDKFFINGSNWEGILGLAYAEIARPDDSLEPFFDSLVKQTHVPNLFSLHLCGAGFPLNQSEVLASVGGSMIIGGIDHSLYTGSLWYTPIRREWYYEVIIVRVEINGQDLKMDCKEYNYDKSIVDSGTTNLRLPKKVFEAAVKSIKAASSTEKFPDGFWLGEQLVCWQAGTTPWNIFPVISLYLMGEVTNQSFRITILPQQYLRPVEDVATSQDDCYKFAISQSSTGTVMGAVIMEGFYVVFDRARKRIGFAVSACHVHDEFRTAAVEGPFVTLDMEDCGYNIPQTDESTLMTIAYVMAAICALFMLPLCLMVCQWRCLRCLRQQHDDFADDISLLK
Q: With B1 as the protein, how does the “production of the β-secretase cleavage product CTF-99 (Western blot with antibody C8)” value read?
A: both mutant APP variants were proficiently cleaved by Asp2
